B1: IRX6 (parent)
chain: YPCLEKPRIWSLAHTATASAVEGA
B2: ZNF8 (parent)
chain: KPYTCSVCGKSFSRTTCLFLHLRT
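Note: lentivirally expressed fusions sorted by FACS into six bins by GFP to DsRed ratio, PSI derived from sequencing read proportions per bin multiplied by bin number.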

Variants of: B1
Experiment: protein stability index of a GFP-peptide fusion (GPS, HEK-293T) (PSI 1-6); higher = more stable
Conditions: c terminus: a fixed tail appended
Variant YPFLEKPRIWSLAHTATASAVEGA has a protein stability index of 3.06. YPDLEKPRIWSLAHTATASAVEGA gave a protein stability index of 1.58. Variant YPHLEKPRIWSLAHTATASAVEGA has a protein stability index of 2.16. YPMLEKPRIWSLAHTATASAVEGA showed a protein stability index of 2.28. For YPQLEKPRIWSLAHTATASAVEGA, the protein stability index was 2.14. In the case of YPPLEKPRIWSLAHTATASAVEGA, the protein stability index is reported as 2.12. In the case of YPSLEKPRIWSLAHTATASAVEGA, the protein stability index is reported as 2.46. With YPALEKPRIWSLAHTATASAVEGA the protein stability index was 1.96. Variant YPVLEKPRIWSLAHTATASAVEGA has a protein stability index of 1.66. With YPYLEKPRIWSLAHTATASAVEGA the protein stability index was 1.54.

Variants of: B2
Experiment: as above
Conditions: c terminus: a fixed tail appended
Variant KPYTCSVCGKSFSRTTCLFNHLRT has a protein stability index of 2.56. In the case of KPYTCSVCGKSFSRTTCLFWHLRT, the protein stability index is reported as 1.39. KPYTCSVCGKSFSRTTCLFPHLRT showed a protein stability index of 2.27. Variant KPYTCSVCGKSFSRTTCLFRHLRT has a protein stability index of 2.42. In the case of KPYTCSVCGKSFSRTTCLFTHLRT, the protein stability index is reported as 2.65. KPYTCSVCGKSFSRTTCLFSHLRT showed a protein stability index of 2.17. In the case of KPYTCSVCGKSFSRTTCLFMHLRT, the protein stability index is reported as 1.74. Variant KPYTCSVCGKSFSRTTCLFYHLRT has a protein stability index of 1.94. KPYTCSVCGKSFSRTTCLFQHLRT gave a protein stability index of 2.96. With KPYTCSVCGKSFSRTTCLFLHLPT the protein stability index was 2.5. With KPYTCSVCGKSFSRTTCLFLHLST the protein stability index was 1.83. With KPYTCSVCGKSFSRTTCLFLHLFT the protein stability index was 1.64. For KPYTCSVCGKSFSRTTCLFLHLIT, the protein stability index was 2.05. Variant KPYTCSVCGKSFSRTTCLFLHLKT has a protein stability index of 2.06. KPYTCSVCGKSFSRTTCLFLHLGT showed a protein stability index of 1.9. In the case of KPYTCSVCGKSFSRTTCLFLHLWT, the protein stability index is reported as 1.75. KPYTCSVCGKSFSRTTCLFLHLLT showed a protein stability index of 1.65. KPYTCSVCGKSFSRTTCLFLHLMT gave a protein stability index of 2.23. Work on KPYTCSVCGKSFSRTTCLFLHLET yielded a protein stability index of 2.26. For KPYTCSVCGKSFSRTTCLFLHLTT, the protein stability index was 1.95. For KPYTCSVCGKSFSRTTCLFLHLDT, the protein stability index was 1.91. KPYTCSVCGKSFSRTTCLFLHLHT gave a protein stability index of 2.32. KPYTCSVCGKSFSRTTCLFLHLVT showed a protein stability index of 2. In the case of KPYTCSVCGKSFSRTTCLFLHLYT, the protein stability index is reported as 1.84. KPYTCSVCGKSFSRTTCLFLHLQT gave a protein stability index of 2.59. KPYTCSVCGKSFSRTTCLFLHLCT showed a protein stability index of 2.06. Work on KPYTCSVCGKSFSRTTCLFLHLNT yielded a protein stability index of 1.75. Variant KPYTCSVCGKSFSRTTCLFLHLAT has a protein stability index of 2.29. With KPYTCSVCGKSFSRTTCLFLHCRT the protein stability index was 2.24. With KPYTCSVCGKSFSRTTCLFLHDRT the protein stability index was 2.04. In the case of KPYTCSVCGKSFSRTTCLFLHVRT, the protein stability index is reported as 1.85. KPYTCSVCGKSFSRTTCLFLHART gave a protein stability index of 2.08. KPYTCSVCGKSFSRTTCLFLHSRT showed a protein stability index of 2.11. KPYTCSVCGKSFSRTTCLFLHFRT gave a protein stability index of 1.82. KPYTCSVCGKSFSRTTCLFLHRRT gave a protein stability index of 2.34. In the case of KPYTCSVCGKSFSRTTCLFLHTRT, the protein stability index is reported as 2.1. For KPYTCSVCGKSFSRTTCLFLHNRT, the protein stability index was 2.57. KPYTCSVCGKSFSRTTCLFLHKRT showed a protein stability index of 2.74. KPYTCSVCGKSFSRTTCLFLHHRT gave a protein stability index of 1.81. For KPYTCSVCGKSFSRTTCLFLHYRT, the protein stability index was 1.8. In the case of KPYTCSVCGKSFSRTTCLFLHERT, the protein stability index is reported as 2.31. KPYTCSVCGKSFSRTTCLFLHWRT gave a protein stability index of 1.74. Work on KPYTCSVCGKSFSRTTCLFLHIRT yielded a protein stability index of 1.96. In the case of KPYTCSVCGKSFSRTTCLFLHGRT, the protein stability index is reported as 2.03. KPYTCSVCGKSFSRTTCLFLHMRT showed a protein stability index of 3.01. Variant KPYTCSVCGKSFSRTTCLFLHPRT has a protein stability index of 2.78. For KPYTCSVCGKSFSRTTCLFLHLRG, the protein stability index was 2.37. Variant KPYTCSVCGKSFSRTTCLFLHLRC has a protein stability index of 2.07. KPYTCSVCGKSFSRTTCLFLHLRV gave a protein stability index of 2.2. With KPYTCSVCGKSFSRTTCLFLHLRP the protein stability index was 2.19. In the case of KPYTCSVCGKSFSRTTCLFLHLRL, the protein stability index is reported as 1.58. For KPYTCSVCGKSFSRTTCLFLHLRA, the protein stability index was 1.96. In the case of KPYTCSVCGKSFSRTTCLFLHLRK, the protein stability index is reported as 2.29. KPYTCSVCGKSFSRTTCLFLHLRI gave a protein stability index of 1.52. In the case of KPYTCSVCGKSFSRTTCLFLHLRS, the protein stability index is reported as 1.89. For KPYTCSVCGKSFSRTTCLFLHLRM, the protein stability index was 2.44. KPYTCSVCGKSFSRTTCLFLHLRF gave a protein stability index of 2.02. KPYTCSVCGKSFSRTTCLFLHLRQ gave a protein stability index of 1.9. Work on KPYTCSVCGKSFSRTTCLFLHLRD yielded a protein stability index of 2.12. Work on KPYTCSVCGKSFSRTTCLFLHLRE yielded a protein stability index of 1.67. Variant KPYTCSVCGKSFSRTTCLFLHLRR has a protein stability index of 2.04. Variant KPYTCSVCGKSFSRTTCLFLHLRH has a protein stability index of 2.96. For KPYTCSVCGKSFSRTTCLFLHLRY, the protein stability index was 1.68. For KPYTCSVCGKSFSRTTCLFLHLRW, the protein stability index was 2.5. For KPYTCSVCGKSFSRTTCLFLHLRN, the protein stability index was 2.35. In the case of KPYTCSVCGKSFSRTTCLFLELRT, the protein stability index is reported as 2.31. In the case of KPYTCSVCGKSFSRTTCLFLMLRT, the protein stability index is reported as 2.16. KPYTCSVCGKSFSRTTCLFLYLRT showed a protein stability index of 1.57. KPYTCSVCGKSFSRTTCLFLTLRT showed a protein stability index of 1.56. KPYTCSVCGKSFSRTTCLFLGLRT gave a protein stability index of 1.94. For KPYTCSVCGKSFSRTTCLFLILRT, the protein stability index was 1.59. Work on KPYTCSVCGKSFSRTTCLFLSLRT yielded a protein stability index of 2.04. KPYTCSVCGKSFSRTTCLFLWLRT showed a protein stability index of 1.75. With KPYTCSVCGKSFSRTTCLFLKLRT the protein stability index was 2.04. KPYTCSVCGKSFSRTTCLFLDLRT gave a protein stability index of 1.35. KPYTCSVCGKSFSRTTCLFLQLRT gave a protein stability index of 2.28. KPYTCSVCGKSFSRTTCLFLRLRT gave a protein stability index of 1.4. Variant KPYTCSVCGKSFSRTTCLFLFLRT has a protein stability index of 1.65. For KPYTCSVCGKSFSRTTCLFLLLRT, the protein stability index was 2.39. In the case of KPYTCSVCGKSFSRTTCLFLCLRT, the protein stability index is reported as 2.37. With KPYTCSVCGKSFSRTTCLFLPLRT the protein stability index was 2.01. KPYTCSVCGKSFSRTTCLFLNLRT gave a protein stability index of 1.6. With KPYTCSVCGKSFSRTTCLFLVLRT the protein stability index was 1.8. With KPYTCSVCGKSFSRTTCLFLALRT the protein stability index was 2.18.

— the supplement of paper PMC10567573
